Laboratory results reported in article PMC5397175, “Binding site density enables paralog-specific activity of SLM2 and Sam68 proteins in Neurexin2 AS4 splicing control”.

T1: SLM2 (T-STAR) STAR domain (UniProt O75525 1-183)
T1 sequence: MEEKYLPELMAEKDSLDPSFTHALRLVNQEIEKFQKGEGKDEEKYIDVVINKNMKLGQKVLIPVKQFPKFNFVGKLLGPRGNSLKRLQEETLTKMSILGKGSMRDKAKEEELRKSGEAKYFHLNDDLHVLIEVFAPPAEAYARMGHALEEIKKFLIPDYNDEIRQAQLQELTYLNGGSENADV


Tests used:
[1] = biological target: T1, SLM2 (T-STAR) STAR domain; experiment: fluorescence polarization; FP buffer, salt, pH and temperature not given in the material; SD from three independent experiments; conditions: protein: recombinant; chain copies: 2; label: 5' fluorescein
Sam68 STAR domain = Sam68 STAR domain (UniProt Q07666 97-283); experiment: as above; conditions: protein: recombinant; chain copies: 2; label: 5' fluorescein
Sam68 STAR domain, sequence (Q07666 97-283): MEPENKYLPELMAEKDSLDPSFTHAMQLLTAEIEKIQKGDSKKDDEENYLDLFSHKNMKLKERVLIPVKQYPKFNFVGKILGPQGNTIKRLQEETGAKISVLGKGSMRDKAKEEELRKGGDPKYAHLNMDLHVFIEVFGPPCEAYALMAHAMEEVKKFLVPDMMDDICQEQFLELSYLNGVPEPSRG

Row | Binder | Kd [1] [µM] | Kd (Sam68 STAR domain) [µM]
1 | Nrxn2 WT (ssRNA) RNA: CCCAAUUAAUUAAUUAAUUAACUAACUAACUAACUUUAAAAACACGAUCUUAAA | 5.9 ± 0.9 | 2.9 ± 0.3
2 | Nrxn2 mutant 7 (ssRNA) RNA: CCCAAUUAAUUAAUUAAUUAACUAACCCACCCACCCUAAAAACACGAUCUUAAA | 3.9 ± 0.4 | 3.4 ± 0.3
